# Data from patent publication US20260266838.
# T1: Recombinant CC16 (uteroglobin SCGB1A1), P11684
# T1 chain: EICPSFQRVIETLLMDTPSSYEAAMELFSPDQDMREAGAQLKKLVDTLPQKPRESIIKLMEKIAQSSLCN
# B1: native human neutrophil elastase (protein)
# chain: IVGGRRARPHAWPFMVSLQLRGGHFCGATLIAPNFVMSAAHCVANVNVRAVRVVLGAHNLSRREPTRQVFAVQRIFENGYDPVNLLNDIVILQLNGSATINANVQVAQLPAQGRRLGNGVQCLAMGWGLLGRNRGIASVLQELNVTVVTSLCRRSNVCTLVRGRQAGVCFGDSGSPLVCNGLIHGIASFVRGGCASGLYPDAFAPVAQFVNWIDSIIQ
# Target: T1, Recombinant CC16 (uteroglobin SCGB1A1), …
protein,measurement,value
B1,in vitro cleavage (mass spectrometry of fragments),two peptides with unique amino acid sequences released from HNE-mediated cleavage of CC16 in vitro
